Experimental findings from patent US20120263739A1, “ANTI INTEGRIN ANTIBODIES LINKED TO NANOPARTICLES LOADED WITH CHEMOTHERAPEUTIC AGENTS” (MERCK PATENT GMBH, priority 2009, published 2012) are described below.

The subject of data set [1] is αvβ3 integrin positive melanoma cells M21. Nature of the data set: Cell detachment from vitronectin coated surface. It counts as cell-based. The settings on record: 4 ng/μl, 4 h at 37° C. As for the experimental part:
FIG. 9: Cell detachment from vitronectin coated surface. For cell detachment assay, 96-well ELISA plates were coated with vitronectin and cells were allowed to attach and spread for 1 h. Then, 4 ng/μl of free DI17E6 or the different unloaded or doxorubicin nanoparticulate formulations were added and the plates were incubated for additional 4 h at 37° C. to induce detachment (concentrations are calculated referred to DI17E6 or equivalent NP amounts). Detached cells were removed and remaining attached cells were stained with CyQUANT GR and counted against untreated control as described in the manufacturer's instructions manual. (Internal control of each experiment n=10, one representative experiment out of 9 independent experiments is shown.)
For cell detachment assays, 96-well ELISA plates were coated with vitronectin as described above. After blocking, cells were allowed to attach and spread for 1 h in cell adhesion medium. Then, 4 ng/μl or 10 ng/μl of either free DI17E6 or the different nanoparticulate formulations (referred to free mAb) were added and the plates were incubated for additional 4 h at 37° C. to induce detachment. Subsequently, plates were washed and processed as for cell adhesion assay. Specific inhibition of attachment or induction of detachment were determined relative to vitronectin-coated surfaces blocked with BSA.

The nature of data set [2]: Particle diameter and polydispersity by photon correlation spectroscopy. In kind it is physicochemical. The settings on record: mean ± SD; n = 3; 100% crosslinking. As for the experimental part: Nanoparticles were analyzed with regard to particle diameter and polydispersity by photon correlation spectroscopy (PCS) using a Malvern Zetasizer 3000HSA (Malvern Instruments Ltd., Malvern, UK). The zetapotential was measured with the same instrument by Laser Doppler microelectrophoresis. Prior to both measurements the samples were diluted with filtered (0.22 μm) purified water. Particle content was determined by microgravimetry. For this purpose 50.0 μl of the nanoparticle suspension was pipetted into an aluminium weighing dish and dried for 2 h at 80° C. After 30 min of storage in an exsiccator the samples were weighed on a micro balance (Sartorius, Germany).

Data set [3] in a line: Antibody bound to nanoparticle surface (SEC of supernatant). It counts as physicochemical. As for the experimental part:
For the thiolation step of the antibodies, DI17E6 or IgG were dissolved in phosphate buffer pH 8.0 at a concentration of 1.0 mg/ml. For the introduction of thiol groups DI17E6 or IgG, respectively, were incubated with a 50 fold molar excess of 2-iminothiolane solution (c=1.14 mg/ml; 40.2 μl) for 2 h as previously described by Steinhauser et al. (2006). The antibodies were purified by size exclusion chromatography (SEC, D-Salt™ Dextran Desalting column). The resulting solutions contained thiolated antibody (DI17E6 or IgG, respectively) at a concentration of about 500 μg/ml. For the coupling reaction 1.0 ml of the sulfhydryl-reactive nanoparticle suspension was incubated with 1.0 ml of the thiolated DI17E6 or IgG, respectively, to achieve a covalent linkage between antibody and the nanoparticle system. For the preparation of samples with adsorptively attached antibody, 1.0 ml of the mPEG5000-SPA modified nanoparticles were incubated with 1.0 ml of thiolated DI17E6 or IgG, respectively. […] To determine unbound antibody the resulting supernatants were collected and analyzed by size exclusion chromatography (SEC) as described above. The amount of antibody bound to the nanoparticle surface was calculated as difference between the amount of antibody obtained after thiolation and purification and the amount of antibody determined in the supernatant obtained after the conjugation step.

Data set [4] in a line: Doxorubicin loading (HPLC of non-entrapped drug). It counts as physicochemical. Conditions: mean ± SD, n = 3. As for the experimental part: (5) Preparation of doxorubicin-loaded nanoparticles 160 mg HSA were dissolved in 4 ml purified water and the solution was filtered through a 0.22 μm cellulose acetate membrane filter (Schleicher & Schuell, Dassel, Germany). An aliquot (500 μl) of this solution was added to 200 μl of a 0.5% (w/v) aqueous stock solution of doxorubicin. To this mixture, 300 μl of purified water were added. In order to adsorb doxorubicin to human serum albumin in solution, the mixture was incubated under stirring (550 rpm) for 2 h at room temperature. For the preparation of nanoparticles by desolvation, 3 ml ethanol (96%, v/v) were added continuously (1 ml/min) with a tubing pump (Ismatec IPN, Glattbrugg, Switzerland). After protein desolvation, an aliquot of 11.75 μl 8% glutaraldehyde solution was added to induce particle crosslinking (corresponding to 100% stoichiometric protein crosslinking). […] The nanoparticle content was determined by gravimetry. […] The content of entrapped doxorubicin was calculated from the difference between total doxorubicin and unbound drug. For the quantification of doxorubicin, a Merck Hitachi D7000 HPLC system equipped with a LiChroCART® 250-4 LiChrospher®-100 RP-18 column (Merck, Darmstadt, Germany) was used. […] Doxorubicin was quantified by UV (250 nm) and fluorescence detection (excitation 560 nm, emission 650 nm).

The next data set deals with αv-negative M21L cells. As to the kind of experiment: MTT cell viability assay. Conditions: MTT, reduce cell viability by 50%, M21L cells. A general note: Formazan colour is commonly taken as a measure of viable cells.

Experimental for αv-negative M21L cells: Cell viability was assessed using the 3-(4,5-dimethylthiazol-2-yl)-2,5-diphenyltetrazolium bromide (MTT) dye reduction assay [27] modified as described before [28].

As for NP-Dox-DI17E6, the “Cell detachment from vitronectin coated surfaces” value in data set [1] is on record as “same detachment efficiency”. In data set [2], this substance registered a Particle diameter of 404.9 ± 27.0 nm and a Polydispersity of 0.040 ± 0.045. Further, the “Covalent linkage of antibody to the particle surface” value in data set [3] (covalent linkage) is given as 11-20 μg antibody/mg nanoparticle. The Antibody binding efficiency in data set [3] (mean ± SD, n = 3, antibody per mg nanoparticle) came to 15.84 ± 4.07 µg/mg. The substance also showed a Drug loading in data set [4] of 56.7 ± 2.9 µg/mg. In the data set on αv-negative M21L cells, the “IC-50 M21L” value was above 100 ng/mL.
